Data taken from the DeepSol protein solubility set.

Experiment: soluble on expression in E. coli; label from the status in PepcDB or PDB records

Soluble on expression in E. coli, not soluble:
MGSDKIHHHHHHMVSLLRRTFSEEIKEELVNVPFGSREEVISELLGFIKARGDLDVKSRHIVFSLHSFAASRRLLNLMKYLSKPVSEIIVEKSHNIKKRYIKITAEYSESFMVIEPFFDVALFVSFLRGLFLSGGSMTNPRYHYHLEINLFEEETLALTRKSLKDFFNINAGIIELRNTRKLYIKSIKDILVFLEAIGVQRKLEEIDRIVTERKVIGDVNRTVNFIEANAIRTANSTARQIRAIELIKENMGLENLPEDLRRVALVRLRNKELSLRELGKKLNLTKSQIYSKLKRIIKIAERFGDVK
MGSDKIHHHHHHMVTKTKTRLGNQRPTQSVTLHYVESLAHEAIELYQKTGRNCYPWQVNLLENIMGIDNNGLWVHQKYGYAIPRRNGKTEDVYILELWALHHGLRILHTAHRISTSHSSFEALKKLLEDMGYVEDVDFVSNKAKGQERIEFKSTGSVIQYRTRTSNGGLGEGFDLLIIDEAQEYTVEQESALKYTVTDSDNPMTVMCGTPPTMVSTGTVFTNFRTKVLAGKSEYSGWSEWSVEDIKDVNDIDSWYLTNPSLGYHLTERKIKAEIGDDELDHNIQRLGYWPSFNQKSAISENEWKRLKVDDVPELSGKLFVGIKYGQDGSNVSMSIAARTIDKKIFIEVIDCQSVRNGMQWIINFLQTADIEKVVVDGANGQTLLANEMKDFKLREPIMPTVSEIITANSVWEQAIVQETLRHANQPSLTEVVTNCDKRNIGSNGGFGYKSLYDDRDISLMDSALLAHWVCYMTKPKRKQRISY
MGSDKIHHHHHHMVVALQYRTDLLEIHRFTRFESSLAHLGFRHFQPLASLRPWVHRYFHLQVATNLPQSIEQTFYPDGGTSLQFYFPAPSLNTNSDEPKVVFHCGQSLHSHAFVPGIEQMIVRFHPGGAFHLLGIAVQEIQQTSSHTVIEATQLHLPGLNQLLSQLADTNQPMQRIAQLEQWLLQLIKPQLDRGTWSTAGIVQMSLPRLIQPQTRLENFYGQLALSRRQFERRFKQETGLSPAQLQQLNRVKIARDLLSQSPELNLAQVAFDCGFYDQAHLHQHFVRVTQQTPGQYKKRKMSQISNLTQR
MGSDKIHHHHHHMVVNESMYQLGSVRSAIRELFEYGKKRAAIVGKENVYDFSIGNPSIPAPQIVNDTIKELVTDYDSVALHGYTSAQGDVETRAAIAEFLNNTHGTHFNADNLYMTMGAAASLSICFRALTSDAYDEFITIAPYFPEYKVFVNAAGARLVEVPADTEHFQIDFDALEERINAHTRGVIINSPNNPSGTVYSEETIKKLSDLLEKKSKEIGRPIFIIADEPYREIVYDGIKVPFVTKYYDNTLVCYSYSKSLSLPGERIGYVLVPDEVYDKAELYAAVCGAGRALGYVCAPSLFQKMIVKCQGATGDINAYKENRDLLYEGLTRIGYHCFKPDGAFYMFVKALEDDSNAFCEKAKEEDVLIVAADGFGCPGWVRISYCVDREMIKHSMPAFEKIYKKYNK
MGSDKIHHHHHHMWFCFLKSGFIIIKQILSTPFFSYKYNIKILINFKLISNIIEHKMLEYANKITLKGDNIMKFAVITDIHGNFDALQTVLDDIDSRDDIEKIYNLGDNIGIGHETNKVLDTIFDRDDMEMIAGNHDEAIMSLVNGTPYPEDLKGKFYEHHQWIEGHLDESYYDEINQLPRYIEMTIKGKKILFIHYEIENDKMSAPIDEQPFAPITKDDEQAISELFKDKEADLILFGHNHRLHMFDDKSTVYFNPGSVGLNNGSNTVYGIITVNEKGISVERVKLAYNNEEFLAGFEEKQVPAREFIFKNFI
MGSDKIHHHHHHMWMNGFARWMDKLKVLSSEAGSKACWGYDACPAGDGIIASIDGYSMDSSRLPWMSLGDWGWKSVVAAASDVAASGGAPFHVMYSLGLDSVERAVDVARGVGEAAVWMGATVGKSDFNTSKSPWIDVAVLGKAEKPLGRFGAKPGMTLVQVGASGYGLLSHLTLQGRLSRDDLPGPVVEYTRRPKPPLRIGPELSSCEAAASIDNSDGLGASLHLLGVESGVSVVIDDILVDRHVEKVLDELGLEKWAVLQSWEDYNIVAVGGDGSIDCILRWCRRLNIECATVGYTSSDGAGRVLIEGGRREFRVSGWTWL
MGSDKIHHHHHHMWQAISRLLEEHHGTADIQEHRELPGGEIHPAWYVRYGEHDVFVKCDSREMLAKFTAEADQLHLLSRSNTVRVPKVYGVGSSRDYSFLLLQYLPVKPLDAHSAWCLGEQLARLHQWSDQPQFGLDFDNDLSTTPQPNSWQRRWATFFAEQRIGWQLQLAAEKGMHFGHIETLIARVDERLAGHQPQPSLLHGDLWPDNCANSQDGGYLFDPACYWGDRECDLAMLPRYPALPAQIYDGYQSVWPLDKDFIDRQPIYQIYYLLNRANLFGGKNIVEAQQLIERQLLS
MGSDKIHHHHHHMWTQQMIHTKRGTFELFTKGNGEPLCITHHYSQFNETGDYFADVFTSTHRVLLINLRDAGNSAKANSEKELSMIETIHDLEAIREALQLPTWHFAGHSTGGMLGLLYAITYPKSLQSLVLVGAAASNYTETPFCIYHPEHPQFHYMQHLIENLKSPHLTNEERKELSTERTKLSLHKPENYNSYFCKPIQKTMSASRMNAFSHEYPAFNLREHLPSMKTKTLIICGRYDVQCPIQYSIEMHEGIRNSIFVTFEESNHYPFLEEAAQFTSTIRTFYKLLH
MGSDKIHHHHHHMYDATHLFEPPVMTEEEKMERFKERIENGEKIEADDWMPDFYRDTLIKLISMHGISEIMGALPEKEWVPKAPSLRRKLGIMAKVQDEMGHGQLLLRVVEDLMKPYGKTRADLMDDLFTGRLKFHNVFHMPTRSWADAGTIGWLVDGAAIITQTNMLGASYGPYARALQRICAEEVFHAQHGESIIMALAEGTPEQKAMIQESLDEWWESLLMFFGPASKETTGTSKQDVTIAYKIRTKTNEELRQNFFTKYVPRIRSLGLIIPDPTLRFDEETGQWIYAQPDWTEFKKIIQGGCPRSKERLALRQTSYQNNAWVREALAETIG
MGSDKIHHHHHHMYLKETLDQFASIDNILKLLKKNPSFNKHCIQERLPQKTIITSNKQRKHIYIIEEGFMKLIFDDNKPRDFSYILSKGAFPFLPVYTEDIPEHTMMVALTDIVWWKIDISFFKGMMETEDPRNYLMLHQLAETRRRFYTIAYQEKLTSRESIYYSLSTMIEFGLRISEKIVELPEFLTYQILADHANTSKSYTSKVLGHLREEGILESQRKPWRINDVQKLQKLIEMNVPLVKIQKN
MGSDKIHHHHHHMYNVMNCIIVDDEPLAREAMKLLIEEAECLQLVGSFNSAATASDFMEQHVVDLVFLDIQMPGITGIEFARTISKRTLVIFTTAYTEYALDSYEVDAIDYLIKPVEAERFQKAVEKAQSYHSLLLQEEKEAIETIVAAEYFFVKAERRYFKVNFSDILFVEGLKDYVILQLGEQRIITRMSLKAVFDLLPKDSFLRVNKSYIVNTAHIDSFDNNDIFIKSYEIAIGNSYRDDFFEGFVMKQQRW
MGSDKIHHHHHHMYREFYGLREKPFSKTPDPRYLFLSRGHREALARLQYAVEERELALLTGDIGCGKTTISRALMDAMGEACRFCFIFNPRLSPLEFLRVIARSLGIDNPAGAKDELLKQLTETLYLMHAEGRCPVIVVDEAQLIPDRDVFDEIRLLTNYQLDDQNLMSVVLMGQPELRQILADPVHEPLRQRIALHYHLQPLSLDETLEYIDFRLEVAGGTPGLFSPDAVQRIHELSGGVPRKINILATNALLVGYGRDAAWIDASLVEELRDEANLY
MGSDKIHHHHHHMYSDLNEGVKPYRMTKSHKNIKQCDLLIAGGAAVGLTLAIALKQAAPELKINIVDAAPQEVIPVSNIRALALAAASIRMLKQLQCWEHIAPHAQPIHSMIITDAYTNDPVKPTLLTFEGDITPNEPFAAMVEHKELLNALKKRAKDLDIPFITNMRIVDFHQEDQHTTVTLSNKEIWQTKLLIAADGAHSKLREKAGLKKFSHSYTQTAIICTVEHEKPHHGQAIQHFLPAGPFALLPLKGNRSAIVWNEDHKTAQYYLKADALIFETEIEKRIGHRYGKLSWNGERQGFPLNLSLTRQCIKPRFALIGDAAHTIHPLAGQGLNLGLRDSAALAEVIIETARLGLDIGSLTALERYQSWRRFEIVRMALSNDWLNKLFSNDNLLLRTLRDVGLGIVNQTPKVKKYFIQEAAGLTPHAPRLLHGLPL
